Values of other authors, collected in paper PMC7425896, “Polypeptides derived from α-Synuclein binding partners to prevent α-Synuclein fibrils interaction with and take-up by cells” (PLoS ONE, 2020).

Biological target: α-Synuclein fibrils (Homo sapiens) (UniProt P37840)
Assay: sedimentation assay

For Hsc70 (from UniProt P11142), the Kd is listed as 100 nM.
